Key:
HLA-A*02:01 [1] = experiment: IEDB peptide-MHC binding, cellular MHC/competitive/fluorescence; ≥ and ≤ were set here for values at or beyond the usual limits of such assays; conditions: source organism: Homo sapiens
HLA-B*35:01 = experiment: IEDB peptide-MHC binding, purified MHC/competitive/fluorescence; filed as Kd, often an IC50 or EC50 that approximates it; ≥ and ≤ were set here for values at or beyond the usual limits of such assays; conditions: source organism: Mycolicibacterium gilvum PYR-GCK
HLA-B*15:17 = experiment: as above
HLA-A*26:03 = experiment: as above; conditions: source organism: Mycolicibacterium gilvum PYR-GCK
HLA-A*02:06 = experiment: as above; conditions: source organism: Mycolicibacterium gilvum PYR-GCK
HLA-A*02:01 [2] = experiment: IEDB peptide-MHC binding, purified MHC/direct/fluorescence; filed as Kd, often an IC50 or EC50 that approximates it; ≥ and ≤ were set here for values at or beyond the usual limits of such assays; conditions: source organism: Mycobacterium tuberculosis
HLA-B*27:05 = experiment: as above; conditions: source organism: Mycobacterium tuberculosis
HLA-A*01:01 [3] = experiment: as above; conditions: source organism: Mycobacterium tuberculosis
HLA-B*15:01 = experiment: as above
HLA-B*40:01 [4] = experiment: as above; conditions: source organism: Mycobacterium tuberculosis
HLA-A*68:02 [5] = experiment: as above; conditions: source organism: Mycobacterium tuberculosis
HLA-B*46:01 [6] = experiment: as above; conditions: source organism: Mycobacterium tuberculosis
HLA-A*26:01 [7] = experiment: as above; conditions: source organism: Mycobacterium tuberculosis str. Haarlem
HLA-B*18:01 [8] = experiment: as above; conditions: source organism: Mycobacterium tuberculosis
HLA-B*07:02 = experiment: as above; conditions: source organism: Mycobacterium tuberculosis
HLA-A*11:01 [9] = experiment: as above; conditions: source organism: Mycobacterium tuberculosis
HLA-B*57:01 [10] = experiment: as above; conditions: source organism: Mycobacterium tuberculosis
HLA-B*48:01 = experiment: as above; conditions: source organism: Mycobacterium tuberculosis
HLA-A*69:01 [11] = experiment: as above; conditions: source organism: Mycobacterium tuberculosis
HLA-B*58:01 = experiment: as above
HLA-A*31:01 = experiment: as above; conditions: source organism: Mycobacterium tuberculosis
HLA-A*11:01 [12] = experiment: IEDB peptide-MHC binding, purified MHC/competitive/fluorescence; filed as Kd, often an IC50 or EC50 that approximates it; ≥ and ≤ were set here for values at or beyond the usual limits of such assays; conditions: source organism: human gammaherpesvirus 4
HLA-B*53:01 = experiment: IEDB peptide-MHC binding, purified MHC/competitive/fluorescence; ≥ and ≤ were set here for values at or beyond the usual limits of such assays; conditions: source organism: Human herpesvirus 4 type 2
HLA-A*24:02 = experiment: IEDB peptide-MHC binding, purified MHC/competitive/radioactivity; ≥ and ≤ were set here for values at or beyond the usual limits of such assays; conditions: source organism: Homo sapiens
HLA-B*40:01 [13] = experiment: IEDB peptide-MHC binding, purified MHC/competitive/fluorescence; filed as Kd, often an IC50 or EC50 that approximates it; ≥ and ≤ were set here for values at or beyond the usual limits of such assays
HLA-A*02:01 [14] = experiment: as above; conditions: source organism: Burkholderia pseudomallei 668
HLA-B*39:01 = experiment: as above; conditions: source organism: Burkholderia pseudomallei 668
HLA-B*27:03 = experiment: as above; conditions: source organism: Burkholderia pseudomallei 668
HLA-A*23:01 = experiment: as above; conditions: source organism: Burkholderia pseudomallei 668
HLA-A*68:02 [15] = experiment: as above; conditions: source organism: Burkholderia pseudomallei 668
HLA-B*46:01 [16] = experiment: as above; conditions: source organism: Burkholderia pseudomallei 668
HLA-A*26:01 [17] = experiment: as above; conditions: source organism: Burkholderia pseudomallei 668
HLA-B*18:01 [18] = experiment: as above; conditions: source organism: Burkholderia pseudomallei 668
HLA-A*02:11 = experiment: as above; conditions: source organism: Burkholderia pseudomallei 668
HLA-B*57:01 [19] = experiment: as above
HLA-A*03:01 = experiment: as above; conditions: source organism: Burkholderia pseudomallei 668
HLA-A*69:01 [20] = experiment: as above; conditions: source organism: Burkholderia pseudomallei 668
HLA-B*83:01 = experiment: as above; conditions: source organism: Burkholderia pseudomallei 668
HLA-B*15:42 = experiment: as above; conditions: source organism: Burkholderia pseudomallei 668
HLA-A*29:02 = experiment: as above; conditions: source organism: Burkholderia pseudomallei 668
HLA-A*24:03 = experiment: as above; conditions: source organism: Burkholderia pseudomallei 668
HLA-B*51:01 = experiment: as above; conditions: source organism: Burkholderia pseudomallei 668
HLA-B*45:06 = experiment: as above; conditions: source organism: Burkholderia pseudomallei 668
HLA-A*01:01 [21] = experiment: IEDB peptide-MHC binding, purified MHC/competitive/radioactivity; ≥ and ≤ were set here for values at or beyond the usual limits of such assays
HLA-A*02:01 [22] = experiment: as above; conditions: source organism: Homo sapiens
HLA-B*44:02 = experiment: IEDB peptide-MHC binding, purified MHC/competitive/fluorescence; filed as Kd, often an IC50 or EC50 that approximates it; ≥ and ≤ were set here for values at or beyond the usual limits of such assays; conditions: source organism: Escherichia coli O139:H28 str. E24377A
[23] = source organism: Mycobacterium tuberculosis
[24] = source organism: Burkholderia pseudomallei 668
[25] = source organism: Escherichia coli O139:H28 str. E24377A
[26] = source organism: Escherichia coli

ALLDKLYAL
IC50 (HLA-A*02:01 [1]): 1.18 µM

ALYLLDGLR
Kd (HLA-B*35:01): 1.21 µM
Kd (HLA-B*15:17; source organism: Mycolicibacterium gilvum PYR-GCK): 0.446 µM
Kd (HLA-A*26:03): 1 µM
Kd (HLA-A*02:06): ≥ 20 µM
Kd (HLA-A*02:01 [2]): ≥ 20 µM
Kd (HLA-B*27:05): ≥ 20 µM
Kd (HLA-A*01:01 [3]): ≥ 20 µM
Kd (HLA-B*15:01; [23]): ≥ 20 µM
Kd (HLA-B*40:01 [4]): ≥ 20 µM
Kd (HLA-A*68:02 [5]): ≥ 20 µM
Kd (HLA-B*46:01 [6]): ≥ 20 µM
Kd (HLA-A*26:01 [7]): ≥ 20 µM
Kd (HLA-B*18:01 [8]): ≥ 20 µM
Kd (HLA-B*07:02): ≥ 20 µM
Kd (HLA-A*11:01 [9]): 7.37 µM
Kd (HLA-B*57:01 [10]): ≥ 20 µM
Kd (HLA-B*48:01): ≥ 20 µM
Kd (HLA-A*69:01 [11]): ≥ 20 µM
Kd (HLA-B*58:01; [23]): ≥ 20 µM
Kd (HLA-A*31:01): 0.106 µM

FSSQLGLFY
Kd (HLA-A*11:01 [12]): 0.947 µM
IC50 (HLA-B*53:01): 2.97 µM

FYDPMFKYHL
IC50 (HLA-A*24:02): 0.153 µM

IEDKNLYMF
Kd (HLA-B*40:01 [13]; source organism: Bacillus mycoides KBAB4): 0.0127 µM

IFSKASEYL
IC50 (HLA-A*24:02): 0.522 µM

ILFDRLPIA
Kd (HLA-A*02:01 [14]): ≤ 0.0001 µM
Kd (HLA-B*39:01): ≥ 20 µM
Kd (HLA-B*27:03): ≥ 20 µM
Kd (HLA-A*23:01): ≥ 20 µM
Kd (HLA-A*68:02 [15]): ≥ 20 µM
Kd (HLA-B*46:01 [16]): ≥ 20 µM
Kd (HLA-A*26:01 [17]): ≥ 20 µM
Kd (HLA-B*18:01 [18]): ≥ 20 µM
Kd (HLA-A*02:11): ≤ 0.0001 µM
Kd (HLA-B*57:01 [19]; [24]): ≥ 20 µM
Kd (HLA-B*15:17; [24]): ≥ 20 µM
Kd (HLA-A*03:01): ≥ 20 µM
Kd (HLA-A*69:01 [20]): ≥ 20 µM
Kd (HLA-B*83:01): ≥ 5 µM
Kd (HLA-B*15:42): 0.97 µM
Kd (HLA-A*29:02): ≥ 20 µM
Kd (HLA-A*24:03): ≥ 20 µM
Kd (HLA-B*51:01): ≥ 20 µM
Kd (HLA-B*45:06): ≥ 5 µM

KSAIVTLTY
IC50 (HLA-A*01:01 [21]; source organism: Human papillomavirus 16): 0.011 µM

LLAVGATKV
IC50 (HLA-A*02:01 [22]): 0.333 µM

LLDRFLATV
IC50 (HLA-A*02:01 [1]): 0.56 µM

RLDCWRGGQV
IC50 (HLA-A*02:01 [22]): 0.25 µM

WEKAWPAVF
Kd (HLA-B*40:01 [13]; source organism: Escherichia coli O157:H7 str. EDL933): 0.096 µM

WSILRQRCW
Kd (HLA-B*44:02): ≥ 20 µM
Kd (HLA-B*57:01 [19]; [25]): 0.108 µM
Kd (HLA-B*15:17; [25]): 0.0052 µM
Kd (HLA-B*15:01; [26]): 0.0934 µM
Kd (HLA-B*58:01; [26]): 0.0521 µM

YGDDVIFSY
IC50 (HLA-A*01:01 [21]; source organism: Rhinovirus A): 0.2 µM
